# T1: cynomolgus monkey GPRC5D protein (cynomolgus monkey, UniProt Q9NZD1 1-343 (human entry))
# T1 construct: also called CynoGPRC5D; on HEK293T-CynoGPRC5D cells
# T1 chain: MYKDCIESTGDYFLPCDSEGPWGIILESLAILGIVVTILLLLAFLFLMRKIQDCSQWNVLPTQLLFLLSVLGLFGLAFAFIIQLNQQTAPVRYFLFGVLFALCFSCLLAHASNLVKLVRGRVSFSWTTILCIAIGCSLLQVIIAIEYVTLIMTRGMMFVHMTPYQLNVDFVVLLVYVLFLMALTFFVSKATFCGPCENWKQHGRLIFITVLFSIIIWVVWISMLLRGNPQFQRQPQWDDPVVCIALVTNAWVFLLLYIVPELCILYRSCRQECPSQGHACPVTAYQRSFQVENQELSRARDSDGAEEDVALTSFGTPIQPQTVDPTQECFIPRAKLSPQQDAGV
# T2: rhesus monkey MUC16 protein (ECT_TM RhMuc16) on 293T cells (rhesus monkey)
# T2 chain: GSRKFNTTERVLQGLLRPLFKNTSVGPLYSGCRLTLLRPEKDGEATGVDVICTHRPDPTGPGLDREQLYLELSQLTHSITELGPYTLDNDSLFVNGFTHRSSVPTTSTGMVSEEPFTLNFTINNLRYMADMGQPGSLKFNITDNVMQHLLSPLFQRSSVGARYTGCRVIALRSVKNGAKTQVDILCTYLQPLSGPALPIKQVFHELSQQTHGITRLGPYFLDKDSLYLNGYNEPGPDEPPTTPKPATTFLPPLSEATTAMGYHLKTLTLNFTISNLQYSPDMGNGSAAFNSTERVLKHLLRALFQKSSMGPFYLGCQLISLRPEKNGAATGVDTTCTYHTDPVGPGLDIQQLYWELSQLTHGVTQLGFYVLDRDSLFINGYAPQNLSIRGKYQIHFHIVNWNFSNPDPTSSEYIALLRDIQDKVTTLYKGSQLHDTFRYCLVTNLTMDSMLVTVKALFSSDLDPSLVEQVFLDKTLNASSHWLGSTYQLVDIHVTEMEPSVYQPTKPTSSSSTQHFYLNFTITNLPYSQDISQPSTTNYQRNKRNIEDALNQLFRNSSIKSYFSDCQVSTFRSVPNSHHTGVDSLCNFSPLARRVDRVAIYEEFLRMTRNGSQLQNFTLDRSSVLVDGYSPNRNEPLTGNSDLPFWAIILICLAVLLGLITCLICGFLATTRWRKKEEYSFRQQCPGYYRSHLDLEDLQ
# How the values were obtained:
# [1] = molecular target: T3, Human CD3D & CD3E heterodimer protein (human, UniProt P07766 23-126; P04234 22-105); test: BLI (ForteBio Octet RED96), antibody on AHC sensor, 100 nM analyte, 1:1 model
# T3 construct: Bought recombinant heterodimer; also called human CD3 protein (Sino Biological, Cat #CT038-H2508H)
# T3 sequence (P07766 23-126 limits assumed, chain 1 of 2): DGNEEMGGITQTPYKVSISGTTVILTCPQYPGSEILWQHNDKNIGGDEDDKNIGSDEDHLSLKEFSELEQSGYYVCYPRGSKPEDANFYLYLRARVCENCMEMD
# T3 sequence (P04234 22-105 limits assumed, chain 2 of 2): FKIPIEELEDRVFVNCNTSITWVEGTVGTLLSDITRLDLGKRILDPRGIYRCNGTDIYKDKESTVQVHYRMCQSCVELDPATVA
# Source text: (§1) In this experiment, the binding affinity of the bispecific antibody [0913] for human CD3D & CD3E heterodimer protein (Sino Biological, Cat #CT038-H2508H) and monkey CD3D & CD3E heterodimer protein (Acro biosystems, Cat #CDD-C52W4) was detected using ForteBio Octet RED96 according to the manufacturer's instructions.
# (§2) Briefly, an AHC sensor (ForteBio, Cat #18-5060) was placed in a running buffer (1×PBS, Hyclone, Cat #SH30256.01, containing 0.02% Tween 20, pH 7.0) and pre-equilibrated at room temperature for 10 min.
# (§3) The experimental data were fitted and calculated using a Fortebio Data Analysis software 1:1 binding model.
# [2] = molecular target: T4, Cynomolgus monkey CD3D & CD3E heterodimer protein (cynomolgus monkey, UniProt Q95LI5 22-117; Q95LI8 22-105); test: as above
# T4 construct: same catalogue number; also called monkey CD3 protein (Acro biosystems, Cat #CDD-C52W4)
# T4 sequence (Q95LI5 22-117 limits assumed, chain 1 of 2): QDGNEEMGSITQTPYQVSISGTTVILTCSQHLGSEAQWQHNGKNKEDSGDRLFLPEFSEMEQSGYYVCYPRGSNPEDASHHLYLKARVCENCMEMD
# T4 sequence (Q95LI8 22-105 limits assumed, chain 2 of 2): as the sequence (P04234 22-105 limits assumed, chain 2 of 2) above, with I5V, N15K, I20V, S32T, D33N, I34N, T64A, S74N, V83L counted along it
# Source text: as §1, §2, §3
# [3] = molecular target: T1, cynomolgus monkey GPRC5D protein; test: flow cytometry, HEK293T-CynoGPRC5D cells (sheet: 293T-cynoGPRC5D), PE anti-human IgG Fc secondary, MFI
# Experimental: The HEK293T-CynoGPRC5D cell line shown in Table 2 was subjected to enzymatic digestion to obtain a single cell suspension. The single cell suspension was centrifuged at room temperature at 400×g, and then the medium was discarded. The cell pellet was washed once with PBS and then resuspended in the serially diluted bifunctional antibodies shown in Table 5 (at an initial concentration of 115.6 nM, 4-fold gradient dilution, 8 concentration points in total), and the cells were incubated at 4° C. for 30 min. The cells were washed once with PBS, and then fluorescent secondary antibody R-PE-conjugated AffiniPure Goat Anti-Human IgG, Fcγ Fragment Specific (Jackson ImmunoResearch, Cat #109-116-098) diluted in a 1:200 ratio was added. The cells were incubated in the dark at 4° C. for 30 min. The cells were washed twice with PBS and then resuspended, and finally, two-channel fluorescence signals were detected using a Beckman Cytoflex flow cytometer.
# human GPRC5D protein = molecular target: T5, human GPRC5D protein (human, UniProt Q9NZD1 1-345); test: flow cytometry, HEK293T cells stably expressing human GPRC5D (sheet: 293T-huGPRC5D), PE anti-human IgG Fc secondary, MFI
# T5 construct: NCI-H929 cells express it endogenously in the functional assays; also called HuGPRC5D; huGPRC5D
# T5 sequence (Q9NZD1 whole entry): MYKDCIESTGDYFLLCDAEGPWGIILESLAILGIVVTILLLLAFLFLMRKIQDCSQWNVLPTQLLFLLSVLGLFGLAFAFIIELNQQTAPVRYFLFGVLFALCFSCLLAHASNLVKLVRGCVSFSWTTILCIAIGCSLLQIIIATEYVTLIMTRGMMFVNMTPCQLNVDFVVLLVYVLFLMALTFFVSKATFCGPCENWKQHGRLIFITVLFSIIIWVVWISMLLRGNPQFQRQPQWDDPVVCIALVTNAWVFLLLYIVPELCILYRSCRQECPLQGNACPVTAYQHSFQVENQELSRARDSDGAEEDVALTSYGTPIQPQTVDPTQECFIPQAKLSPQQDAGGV
# Experimental: (2) Whether the anti-CD3/anti-GPRC5D bispecific antibodies in the present invention could bind to HEK293T cells stably expressing the human GPRC5D protein was determined by cell binding experiments. […] The plate was centrifuged at room temperature at 400×g, and then the supernatant was discarded. The cells were washed twice with PBS and centrifuged. The supernatant was discarded. The cell pellet was resuspended in fluorescent secondary antibody R-PE-conjugated AffiniPure Goat Anti-Human IgG, Fcγ Fragment Specific (Jackson ImmunoResearch, Cat #109-116-098) diluted in a 1:200 ratio. The cells were incubated in the dark at 4° C. for 30 min. The cells were washed twice with PBS, and 100 μL of PBS was added to each well to resuspend the cells. Fluorescence signals were detected using a Beckman Cytoflex flow cytometer.
# [4] = molecular target: T6, human MUC16 protein endogenously expressed on cells (human, UniProt Q8WXI7 1-14507); test: flow cytometry, OVCAR3 cells (endogenous human MUC16), PE anti-human IgG Fc secondary, MFI; EC50 table under the plot, unit from the axis Conc.(nM)
# T6 construct: whole, on cells; also called MUC16 on OVCAR3 cells; MUC16 in ovarian carcinoma tissue
# Experimental: (1) Whether the anti-CD3/anti-MUC16 bispecific antibodies in the present invention could bind to the MUC16 protein endogenously expressed on human ovarian carcinoma cells (OVCAR3) (Cell Bank of Type Culture Collection Committee of the Chinese Academy of Sciences, Cat #TCHu228) was determined by cell binding experiments.
# The experiments were performed using flow cytometry. OVCAR3 cells were digested, centrifuged and collected. The cells were resuspended in a PBS solution, and seeded into a 96-well plate (Corning, Cat #3799) at 1×10⁵ cells/well. The 96-well plate was centrifuged and then the supernatant was discarded. 100 μL of the serially diluted test bispecific antibody (at a maximum concentration of 200 nM, 5-fold dilution from 100 nM, 9 concentration points in total) was added to the OVCAR3 cells. The plate was incubated at 4° C. for 30 min and centrifuged (1000 rpm, 5 min), and then the supernatant was discarded. 100 μL of PBS solution was added to each well, and the cells were washed twice. 100 μL of fluorescent secondary antibody R-PE-conjugated AffiniPure Goat Anti-Human IgG, Fcγ Fragment Specific (Jackson ImmunoResearch, Cat #109-116-098) diluted in a ratio of 1:200 was then added. The cells were incubated at 4° C. for 30 min. After the cells were washed twice with the PBS solution, 100 μL of PBS solution was added to each well to resuspend the cells, and finally, fluorescence signals were detected using a BD Accuri C5 (BD Bioscience) flow cytometer according to the manufacturer's instructions. REGN4018 was used as a positive control.
# [5] = molecular target: T2, rhesus monkey MUC16 protein (ECT_TM …); test: flow cytometry, 293T/rhesus MUC16 cells as printed on the sheet and in the legend (the example, paragraph 611, speaks of cynomolgus MUC16), PE anti-human IgG Fc secondary, MFI; EC50 table under the plot, unit from the axis Conc.(nM)
# Experimental: Referring to the flow cytometry described above, the serially diluted test bispecific antibody (at an initial concentration of 100 nM, 5-fold dilution, 9 points) was added to the cells, and the plate was incubated at 4° C. for 30 min. The cells were washed twice with PBS, and then fluorescent secondary antibody R-PE-conjugated AffiniPure Goat Anti-Human IgG, Fcγ Fragment Specific was added. The cells were incubated at 4° C. for 30 min. The cells were washed twice with PBS and then resuspended, and finally, fluorescence signals were detected using a BD Accuri C5 (BD Bioscience) flow cytometer.
Kd [1],koff [1],kon [1],Kd [2],koff [2],kon [2],EC50 (read off the curve) [3],EC50 (read off the curve) (human GPRC5D protein),EC50 [4],EC50 [5],Binder
727 nM,0.0158 s⁻¹,21700 M⁻¹ s⁻¹,75.9 nM,0.00631 s⁻¹,83200 M⁻¹ s⁻¹,~8 nM,~3 nM,,,"anti-CD3/GPRC5D bispecific antibody Bi-29H6-6 (bispecific antibody, G56E variant of the 29H6 VH; also called anti-GPRC5D/CD3 bifunctional antibody Bi-29H6-6) heavy 1: QVQLVQSGAEVKKPGASVKVSCKASGYTFTTHYMYWVRQAPGQGLEWIGGINPSNEATNFNEKFKTKATLTVDKSTSTAYMELSSLRSEDTAVYYCTRVGGLSYTMDYWGQGTLVTVSSASTKGPSVFPLAPSSKSTSGGTAALGCLVKDYFPEPVTVSWNSGALTSGVHTFPAVLQSSGLYSLSSVVTVPSSSLGTQTYICNVNHKPSNTKVDKKVEPKSCDKTHTCPPCPAPEAAGGPSVFLFPPKPKDTLMISRTPEVTCVVVAVSHEDPEVKFNWYVDGVEVHNAKTKPREEQYNSTYRVVSVLTVLHQDWLNGKEYKCKVSNKALAAPIEKTISKAKGQPREPQVCTLPPSRDELTKNQVSLSCAVKGFYPSDIAVEWESNGQPENNYKTTPPVLDSDGSFFLVSKLTVDKSRWQQGNVFSCSVMHEALHNHYTQKSLSLSPGK heavy 2: not shown light: not shown"
,,,,,,,,1.45 nM,3.74 nM,"control antibody REGN4018 (bispecific antibody, human IgG4 S228P, kappa, Derived from US20190389966A1; heavy chains REGN4018-8767pH and REGN4018-G20, light chain REGN4018-8767pL; also called positive control) heavy 1: QVQLVESGGGLVKPGGSLRLSCAASGFTFSNYYMSWVRQAPGKGLEWISYISGRGSTIFYADSVKGRITISRDNAKNSLFLQMNSLRAEDTAVYFCVKDRGGYSPYWGQGTLVTVSSASTKGPSVFPLAPCSRSTSESTAALGCLVKDYFPEPVTVSWNSGALTSGVHTFPAVLQSSGLYSLSSVVTVPSSSLGTKTYTCNVDHKPSNTKVDKRVESKYGPPCPPCPAPPVAGPSVFLFPPKPKDTLMISRTPEVTCVVVDVSQEDPEVQFNWYVDGVEVHNAKTKPREEQFNSTYRVVSVLTVLHQDWLNGKEYKCKVSNKGLPSSIEKTISKAKGQPREPQVYTLPPSQEEMTKNQVSLTCLVKGFYPSDIAVEWESNGQPENNYKTTPPVLDSDGSFFLYSRLTVDKSRWQEGNVFSCSVMHEALHNHYTQKSLSLSLGK heavy 2: EVQLVESGGGLVQPGRSLRLSCAASGFTFDDYSMHWVRQAPGKGLEWVSGISWNSGSIGYADSVKGRFTISRDNAKNSLYLQMNSLRAEDTALYYCAKYGSGYGKFYYYGMDVWGQGTTVTVSSASTKGPSVFPLAPCSRSTSESTAALGCLVKDYFPEPVTVSWNSGALTSGVHTFPAVLQSSGLYSLSSVVTVPSSSLGTKTYTCNVDHKPSNTKVDKRVESKYGPPCPPCPAPPVAGPSVFLFPPKPKDTLMISRTPEVTCVVVDVSQEDPEVQFNWYVDGVEVHNAKTKPREEQFNSTYRVVSVLTVLHQDWLNGKEYKCKVSNKGLPSSIEKTISKAKGQPREPQVYTLPPSQEEMTKNQVSLTCLVKGFYPSDIAVEWESNGQPENNYKTTPPVLDSDGSFFLYSRLTVDKSRWQEGNVFSCSVMHEALHNRFTQKSLSLSLGK light: not shown"

# — US20250092135A1 (NANJING LEADS BIOLABS, published 2025)
